Experimental data taken from US20200354468A1 (US Dept. of Health and Human Services, published 2020).
Values belong to the binder of their own block, whether it stands above or below them.

Legend:
[1] = target: T1, Recombinant CD133 domain A polypeptide (Homo sapiens, UniProt O43490 180-400, limits assumed); test: direct ELISA, recombinant domain coated
T1 construct: also called CD133A; recombinant CD133 Extracellular Domain A
T1 sequence: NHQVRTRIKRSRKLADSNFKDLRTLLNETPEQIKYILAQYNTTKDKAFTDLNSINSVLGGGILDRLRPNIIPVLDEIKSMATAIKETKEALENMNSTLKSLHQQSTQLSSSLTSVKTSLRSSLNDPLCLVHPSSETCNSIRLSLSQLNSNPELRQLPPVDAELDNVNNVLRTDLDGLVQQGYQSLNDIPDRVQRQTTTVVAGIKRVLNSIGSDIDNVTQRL
Experimental: (§1) The cDNAs of IgG heavy and light chains were amplified by polymerase chain reaction (PCR) and cloned into a mammalian expression vector. The recombinant monoclonal antibody was then transiently expressed using a HEK293 cell system. The expressed recombinant antibodies were then tested by ELISA against CD133 immunogenic polypeptides A and B and recombinant domain A and B polypeptides. […] The testing confirmed the specificity of the mAbs. The cDNA was sequenced.

[2] = target: T2, BSA-conjugated CD133 immunogenic polypeptide A (Homo sapiens, N-terminal lysine used for conjugation; conjugated to BSA); test: direct ELISA, BSA-conjugated peptide coated
T2 construct: The peptide stood in the assays as a BSA conjugate; also called A-BSA; PepA
T2 peptide: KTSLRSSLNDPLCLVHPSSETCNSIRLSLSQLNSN

[3] = target: T3, BSA-conjugated CD133 immunogenic polypeptide B (Homo sapiens, lysine added as C-terminal residue for conjugation; conjugated to BSA); test: direct ELISA, BSA-conjugated peptide coated
T3 construct: The peptide stood in the assays as a BSA conjugate; the text gives 615-643; also called B-BSA; Pep B
T3 peptide: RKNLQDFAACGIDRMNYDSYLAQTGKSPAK

[4] = target: T4, Recombinant CD133 domain B polypeptide (Homo sapiens, UniProt O43490 515-745); test: subclone screening by ELISA and Western blot
T4 construct: also called CD133B; recombinant CD133 Extracellular Domain B
T4 sequence: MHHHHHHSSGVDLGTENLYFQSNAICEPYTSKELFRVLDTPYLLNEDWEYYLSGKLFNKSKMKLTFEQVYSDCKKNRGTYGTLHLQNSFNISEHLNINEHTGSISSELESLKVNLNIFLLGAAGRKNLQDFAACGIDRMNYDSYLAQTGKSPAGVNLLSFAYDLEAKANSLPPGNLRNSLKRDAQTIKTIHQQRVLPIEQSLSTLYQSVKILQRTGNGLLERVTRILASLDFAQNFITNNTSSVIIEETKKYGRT

[5] = target: T4, Recombinant CD133 domain B polypeptide; test: direct ELISA, recombinant domain coated
Experimental: as §1

binding result [1]: no binding
binding result [2]: no binding
binding result [3]: binds
binding result [4]: binds
B1: anti-CD133 monoclonal antibody mAb 133-3 (antibody, V domains shown)
VH: QSVEESGGRLVTPGTPLTLTCTVSGFSLSRYAMSWVRQAPGKGLDWIGYIDIGGGAYYASWAKGRFTISETSTTVYLKVNSPTTEDTATYFCARGVANSDIWGPGTLVTVSS
VL: ALVMTQTPSPVSAAVGGTVTINCQSSQSVFNNKWLSWYQQKPGQPPKLLIYFVSTLASGVPSRFKGSGSGTQFTLTISGVQCDDAATYYCQGSDYSSGWYSPFGGGTEVVVEG
notes: Rabbit IgG from a hybridoma, cloned and made recombinantly in HEK293 cells

binding result [5]: no binding
binding result [3]: no binding
B2: anti-CD133 monoclonal antibody mAb 47-10 (antibody, V domains shown)
VH: QSVEESGGRLVTPGTPLTLTCTVSGIDLNNYNMQWVRQAPGKGLEWIGATFGSDSIYYATWAKGRFTISKTSTTVDLKMTSLTTEDTATYFCARGGLWGPGTLVTVSS
VL: AQVLTQTASPVSAAVGATVTINCQSSQSVYNNNYLAWFQQKPGQPPKLLIYRASTLASGVSSRFKGSGSGTQFALTISGVQCDDAGTYYCQGEFSCDSADCAAFGGGTEVVVKG
notes: Rabbit IgG from a hybridoma, cloned and made recombinantly in HEK293 cells; also called clone 47-10; mAb subclone 47-10
